This is an account of results in the supplement of paper PMC11316812.

The test system of series [1] is hTERT-HMEC. The series can be described thus: percentage of EdU-negative (G0-arrested) nuclei per well, 72 h; higher = more G0 arrest. The following applies: reference: sequence is the full UniProt precursor, the tested protein was the secreted form or ectodomain.
The test system of series [2] is MCF7. The series is described as above. Particulars: reference: sequence is the full UniProt precursor, the tested protein was the secreted form or ectodomain.
Where [3] appears, read: protein concentration 0.0357143 µM.
The mark [4] stands for this setting: protein concentration 0.357143 µM.
Setting [5] is: protein concentration 0.0225 µM.
[6] abbreviates: protein concentration 0.02325 µM.
[7] abbreviates: protein concentration 0.2325 µM.
[8] abbreviates: protein concentration 0.03125 µM.
[9] abbreviates: protein concentration 0.3125 µM.
The mark [10] stands for this setting: protein concentration 0.00828571 µM.
[11] abbreviates: protein concentration 0.0828571 µM.
[12] abbreviates: protein concentration 0.01051 µM.
Setting [13] is: protein concentration 0.1051 µM.

± gives the standard deviation of the averaged measurements.
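Further: secreted proteins added to cultured cells, EdU pulse at the end, nuclei found by Hoechst imaging, EdU status from nuclear versus surrounding ring intensity ratio, PBS as neutral control.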

With “MNPTLILAAFCLGIASATLTFDHSLEAQWTKWKAMHNRLYGMNEEGWRRAVWEKNMKMIELHNQEYREGKHSFTMAMNAFGDMTSEEFRQVMNGFQNRKPRKGKVFQEPLFYEAPRSVDWREKGYVTPVKNQGQCGSCWAFSATGALEGQMFRKTGRLISLSEQNLVDCSGPQGNEGCNGGLMDYAFQYVQDNGGLDSEESYPYEATEESCKYNPKYSVANDTGFVDIPKQEKALMKAVATVGPISVAIDAGHESFLFYKEGIYFEPDCSSEDMDHGVLVVGYGFESTESDNNKYWLVKNSWGEEWGMGGYVKMAKDRRNHCGIASAASYPTV”, the “percentage of EdU-negative” value in series [1] (setting [3]) came to 4.81 ± 0.59%; in series [1] (setting [4]), 5.42 ± 0.42%; in series [2] (setting [3]), 27.8 ± 1.3%; in series [2] (setting [4]), 24 ± 1.1%.
Take “MRTIAILAAILLVALQAQAESLQERADEATTQKQSGEDNQDLAISFAGNGLSALRTSGSQARATCYCRTGRCATRESLSGVCEISGRLYRLCCR”: the “percentage of EdU-negative” value in series [1] (setting [5]) is 4.85 ± 0.56%; in series [1] (protein concentration 0.225 µM), 5.716 ± 0.019%; in series [2] (setting [5]) it was 27.1 ± 0.85%; in series [2] (protein concentration 0.225 µM), 25.5 ± 1.3%.
Regarding “MDLLQFLAFLFVLLLSGMGATGTLRTSLDPSLEIYKKMFEVKRREQLLALKNLAQLNDIHQQYKILDVMLKGLFKVLEDSRTVLTAADVLPDGPFPQDEKLKDAFSHVVENTAFFGDVVLRFPRIVHYYFDHNSNWNLLIRWGISFCNQTGVFNQGPHSPILSLMAQELGISEKDSNFQNPFKIDRTEFIPSTDPFQKALREEEKRRKKEEKRKEIRKGPRISRSQSEL [Q9H6E4]”, the “percentage of EdU-negative” value in series [1] (setting [6]) is 5.552 ± 0.014%; in series [1] (setting [7]), 6.34 ± 0.88%; in series [2] (setting [6]), 27.1 ± 0.79%; in series [2] (setting [7]), 26.7 ± 0.95%.
Turning to “MKYLRHRRPNATLILAIGAFTLLLFSLLVSPPTCKVQEQPPAIPEALAWPTPPTRPAPAPCHANTSMVTHPDFATQPQHVQNFLLYRHCRHFPLLQDVPPSKCAQPVFLLLVIKSSPSNYVRRELLRRTWGRERKVRGLQLRLLFLVGTASNPHEARKVNRLLELEAQTHGDILQWDFHDSFFNLTLKQVLFLQWQETRCANASFVLNGDDDVFAHTDNMVFYLQDHDPGRHLFVGQLIQNVGPIRAFWSKYYVPEVVTQNERYPPYCGGGGFLLSRFTAAALRRAAHVLDIFPIDDVFLGMCLELEGLKPASHSGIRTSGVRAPSQRLSSFDPCFYRDLLLVHRFLPYEMLLMWDALNQPNLTCGNQTQIY [Q9Y2A9]”, the “percentage of EdU-negative” value in series [1] (setting [5]) was 4.326 ± 0.034%; in series [1] (protein concentration 0.225 µM), 7.879 ± 0.065%; in series [2] (setting [5]), 25.7 ± 2%; in series [2] (protein concentration 0.225 µM), 30.2 ± 0.85%.
Regarding “MSPSPTALFCLGLCLGRVPAQSGPLPKPSLQALPSSLVPLEKPVTLRCQGPPGVDLYRLEKLSSSRYQDQAVLFIPAMKRSLAGRYRCSYQNGSLWSLPSDQLELVATGVFAKPSLSAQPGPAVSSGGDVTLQCQTRYGFDQFALYKEGDPAPYKNPERWYRASFPIITVTAAHSGTYRCYSFSSRDPYLWSAPSDPLELVVTGTSVTPSRLPTEPPSPVAEFSEATAELTVSFTNEVFTTETSRSITASPKESDSPAGPARQYYTKGNLVRICLGAVILIILAGFLAEDWHSRRKRLRHRGRAVQRPLPPLPPLPLTRKSNGGQDGGRQDVHSRGLCS [Q9HCN6]”, the “percentage of EdU-negative” value in series [1] (setting [5]) is 4.56 ± 0.87%; in series [1] (protein concentration 0.225 µM) it was 5.35 ± 0.6%; in series [2] (setting [5]), 24.78 ± 0.15%; in series [2] (protein concentration 0.225 µM), 24.9 ± 1.1%.
“MKYTSYILAFQLCIVLGSLGCYCQDPYVKEAENLKKYFNAGHSDVADNGTLFLGILKNWKEESDRKIMQSQIVSFYFKLFKNFKDDQSIQKSVETIKEDMNVKFFNSNKKKRDDFEKLTNYSVTDLNVQRKAIHELIQVMAELSPAAKTGKRKRSQMLFRGRRASQ”: the “percentage of EdU-negative” value is 92.2 ± 1.5% in series [1] (setting [8]), 96.92 ± 0.62% in series [1] (setting [9]), 39.5 ± 2.2% in series [2] (setting [8]) and 42.7 ± 1.8% in series [2] (setting [9]).
In the case of “MSLWQPLVLVLLVLGCCFAAPRQRQSTLVLFPGDLRTNLTDRQLAEEYLYRYGYTRVAEMRGESKSLGPALLLLQKQLSLPETGELDSATLKAMRTPRCGVPDLGRFQTFEGDLKWHHHNITYWIQNYSEDLPRAVIDDAFARAFALWSAVTPLTFTRVYSRDADIVIQFGVAEHGDGYPFDGKDGLLAHAFPPGPGIQGDAHFDDDELWSLGKGVVVPTRFGNADGAACHFPFIFEGRSYSACTTDGRSDGLPWCSTTANYDTDDRFGFCPSERLYTQDGNADGKPCQFPFIFQGQSYSACTTDGRSDGYRWCATTANYDRDKLFGFCPTRADSTVMGGNSAGELCVFPFTFLGKEYSTCTSEGRGDGRLWCATTSNFDSDKKWGFCPDQGYSLFLVAAHEFGHALGLDHSSVPEALMYPMYRFTEGPPLHKDDVNGIRHLYGPRPEPEPRPPTTTTPQPTAPPTVCPTGPPTVHPSERPTAGPTGPPSAGPTGPPTAGPSTATTVPLSPVDDACNVNIFDAIAEIGNQLYLFKDGKYWRFSEGRGSRPQGPFLIADKWPALPRKLDSVFEERLSKKLFFFSGRQVWVYTGASVLGPRRLDKLGLGADVAQVTGALRSGRGKMLLFSGRRLWRFDVKAQMVDPRSASEVDRMFPGVPLDTHDVFQYREKAYFCQDRFYWRVSSRSELNQVDQVGYVTYDILQCPED”, the “percentage of EdU-negative” value is 4.71 ± 0.63% in series [1] (setting [10]), 6.64 ± 0.96% in series [1] (setting [11]), 24.2 ± 1.4% in series [2] (setting [10]) and 24.7 ± 0.13% in series [2] (setting [11]).
As to “MLKKPLSAVTWLCIFIVAFVSHPAWLQKLSKHKTPAQPQLKAANCCEEVKELKAQVANLSSLLSELNKKQERDWVSVVMQVMELESNSKRMESRLTDAESKYSEMNNQIDIMQLQAAQTVTQTSADAIYDCSSLYQKNYRISGVYKLPPDDFLGSPELEVFCDMETSGGGWTIIQRRKSGLVSFYRDWKQYKQGFGSIRGDFWLGNEHIHRLSRQPTRLRVEMEDWEGNLRYAEYSHFVLGNELNSYRLFLGNYTGNVGNDALQYHNNTAFSTKDKDNDNCLDKCAQLRKGGYWYNCCTDSNLNGVYYRLGEHNKHLDGITWYGWHGSTYSLKRVEMKIRPEDFKP”, the “percentage of EdU-negative” value in series [1] (setting [12]) came out at 4.85 ± 0.3%; in series [1] (setting [13]), 5.52 ± 0.31%; in series [2] (setting [12]), 24.6 ± 2.7%; in series [2] (setting [13]), 25.2 ± 0.9%.
